{"source": "paper PMC2815779", "about": "“Structure and Kinetic Investigation of Streptococcus pyogenes Family GH38 α-Mannosidase” (PLoS ONE, 2010)", "key": {"purified protein [1]": {"substrate": "Cc1cc(=O)oc2cc(O[C@H]3O[C@H](CO)[C@@H](O)[C@H](O)[C@@H]3O)ccc12", "assay": "purified protein", "type": "biochemical, Streptococcus pyogenes", "conditions": "Zn2+"}, "purified protein [2]": {"substrate": "OC[C@H]1O[C@H](O[C@H]2[C@H](O)[C@@H](CO)OC(O)[C@H]2O)[C@@H](O)[C@@H](O)[C@@H]1O", "assay": "purified protein", "type": "biochemical, Streptococcus pyogenes", "conditions": "Zn2+"}}}
{"protein": "SpGH38 (Spy1604), family GH38 α-mannosidase (Streptococcus pyogenes serotype M1) (protein, full length, residues 1-901, N-terminal His6-tag) MATKKVHIISHSHWDREWYMAYEQHHMRLINLIDDLLEVFQTDPDFHSFHLDGQTIILDDYLKVRPEREPEIRQAIASGKLRIGPFYILQDDFLTSSESNVRNMLIGKEDCDRWGASVPLGYFPDTFGNMGQTPQLMLKAGLQAAAFGRGIRPTGFNNQVDTSEKYSSQFSEISWQGPDNSRILGLLFANWYSNGNEIPTTEAEARLFWDKKLADAERFASTKHLLMMNGCDHQPVQLDVTKAIALANQLYPDYEFVHSCFEDYLADLADDLPENLSTVQGEITSQETDGWYTLANTASARIYLKQANTRVSRQLENITEPLAAMAYEVTSTYPHDQLRYAWKTLMQNHPHDSICGCSVDSVHREMMTRFEKAYEVGHYLAKEAAKQIADAIDTRDFPMDSQPFVLFNTSGHSKTSVAELSLTWKKYHFGQRFPKEVYQEAQEYLARLSQSFQIIDTSGQVRPEAEILGTSIAFDYDLPKRSFREPYFAIKVRLRLPITLPAMSWKTLALKLGNETTPSETVSLYDDSNQCLENGFLKVMIQTDGRLTITDKQSGLIYQDLLRFEDCGDIGNEYISRQPNHDQPFYADQGTIKLNIISNTAQVAELEIQQTFAIPISADKLLQAEMEAVIDITERQARRSQEKAELTLTTLIRMEKNNPRLQFTTRFDNQMTNHRLRVLFPTHLKTDHHLADSIFETVKRPNHPDATFWKNPSNPQHQECFVSLFDGENGVTIGNYGLNEYEILPDTNTIAITLLRSVGEMGDWGYFPTPEAQCLGKHSLSYSFESITKQTQFASYWRAQEGQVPVITTQTNQHEGTLAAEYSYLTGTNDQVALTAFKRRLADNALITRSYNLSNDKTCDFSLSLPNYNAKVTNLLEKDSKQSTPSQLGKAEILTLAWKKQ", "values": [{"measurement": "Km", "setting": "purified protein [1]", "value": "3.6 ± 1.0", "unit": "mM"}, {"measurement": "Km", "setting": "purified protein [2]", "value": "27 ± 0.75", "unit": "mM"}]}
